B1: Hairpin Ribozyme (parent)
chain: GUCCUCUUUCACGUGCGCGUGAAAGAGAGAAGUGAACCAGAGAAACACACGUUGUGGUAUAUUACCUGGUA

In this data set the parent is B1. Kind of data set: self-cleavage, relative activity (ratio to wild type); higher = more cleavage; co-transcriptional.
On to GUCCUAUUUCACGUGCGCGUGAAAGAGAGAAGUGAACCAGAGAAACACACGUUAUGGUAUAUUACCUGGUA, for which the self-cleavage came out at 0.342.
Turning to GUCCUAUUUCACGUGCGCGUGAAAGAGAGAAGUGAACCAGAGAAACACACGUUUUGGUAUAUUACCUGGUA, the self-cleavage is 0.379.
Turning to GUCCUAUUUCACGUACGCGUGAAAGAGAGAAGUGAACCAGAGAAACACACGUUGUGGUAUAUUACCUGGUA, the self-cleavage amounted to 0.54.
Then GUCCUGUUUCACGUGUGCGUGAAAGAGAGAAGUGAACCAGAGAAACACACGUUGUGGUAUAUUACCUGGUA, with 0.627; and GUCCUAUUUCACGUGCGCGUGAAAGAGAGAAGUGAACCAGAGAAACACACGUUGUGGUGUAUUACCUGGUA, with 0.178.
Then GUCCUGUUUCACGUGCGCGUGAAAGAGAGAAGUGAACCAGAGAAACACAGGUUGUGGUAUAUUACCUGGUA, with 0.109; and GUCCUGUUUCACGUGCGCGUGAAAGAGAGAAGUGAACCAGAGAAACACAAGUUGUGGUAUAUUACCUGGUA, with 0.14; and GUCCUAUUUCACGUGCGCGUGAAAGAGAGAAGUGAACCAGAGAAACACACGUUGUGGGAUAUUACCUGGUA, with 0.559.
The result for GUCCUGUUUCACGUGCGCGUGAACGAGAGAAGUGAACCAGAGAAACACACGUUGUGGUAUAUUACCUGGUA reads 0.192; that for GUCCUGUUUCACGUGCGCGUGAAGGAGAGAAGUGAACCAGAGAAACACACGUUGUGGUAUAUUACCUGGUA, 0.337.
For GUCCUAUUUCACGUGCGCGUGAAAGAGAGAAGUGAACCAGAGAAACACAUGUUGUGGUAUAUUACCUGGUA, the self-cleavage was found to be 0.239.
The result for GUCCUAUUUCACGUGCGCGUGAAAGAGAGAAGUGAACCACAGAAACACACGUUGUGGUAUAUUACCUGGUA reads 0.109; that for GUCCUAUUUCACGUGCGCGUGAAAGAGAGAAGUGAACCAAAGAAACACACGUUGUGGUAUAUUACCUGGUA, 0.236; that for GUCCUAUUUCACGUGCGCGUGAAAGAGAGAAGUGAACCAUAGAAACACACGUUGUGGUAUAUUACCUGGUA, 0.103.
Then GUCCUAUUUCACGAGCGCGUGAAAGAGAGAAGUGAACCAGAGAAACACACGUUGUGGUAUAUUACCUGGUA, with 0.612; and GUCCUGUUUCACGUGCGCGUGAAAGAGAGAAGUGCACCAGAGAAACACACGUUGUGGUAUAUUACCUGGUA, with 0.499; and GUCCUGUUUCACGUGCGUGUGAAAGAGAGAAGUGAACCAGAGAAACACACGUUGUGGUAUAUUACCUGGUA, with 0.613.
Turning to GUCCUGUUUCACGUGCGAGUGAAAGAGAGAAGUGAACCAGAGAAACACACGUUGUGGUAUAUUACCUGGUA, the self-cleavage worked out at 0.645.
As to GUCCUGUUUCACGUGCGGGUGAAAGAGAGAAGUGAACCAGAGAAACACACGUUGUGGUAUAUUACCUGGUA, the self-cleavage is 0.395.
Turning to GUCCUAUUUCACGUGCGCGUGAAAGAGAGAAGUGAACCAGAGAAACACACGUUGUGGUAUAUUACCUGGUU, the self-cleavage worked out at 0.423.
Then GUCCUAUUUCACGUGCGCGUGAAAGAGAGAAGUGAACCAGAGAAACACGCGUUGUGGUAUAUUACCUGGUA, with 0.204; and GUCCUGUUUCACGUGCGCGUGAAAGAGAGCAGUGAACCAGAGAAACACACGUUGUGGUAUAUUACCUGGUA, with 0.156.
Then GUCCUGUUUCACGUGCGCGUGAAAGAGAGGAGUGAACCAGAGAAACACACGUUGUGGUAUAUUACCUGGUA, with 0.14.
The result for GUCCUGUUUUACGUGCGCGUGAAAGAGAGAAGUGAACCAGAGAAACACACGUUGUGGUAUAUUACCUGGUA reads 0.305; that for GUCCUAUUUCACGUGCGCGUGAAAGAGAGAAGUGAACCAGAGAAACACACGUUGUGGUAUACUACCUGGUA, 0.157.
Regarding GUCCUAUUUCACGUGCGCGUGAAAGAGAGAAGUGAACCAGAGAAACACACGUUGUCGUAUAUUACCUGGUA, the self-cleavage is 0.128.
As to GUCCUGUUUCACGUGCGCGUGAAAGAGAGAAGUGAACCAGAGCAACACACGUUGUGGUAUAUUACCUGGUA, the self-cleavage is 0.11.
The result for GUCCUGUUUCACGUGCGCGUGAAAGAGAGAAGUGAAGCAGAGAAACACACGUUGUGGUAUAUUACCUGGUA reads 0.142; that for GUCCUGUUUCACGUGCGCGUGAAAGAGAGAAGUGAAACAGAGAAACACACGUUGUGGUAUAUUACCUGGUA, 0.158.
The result for GUCCUAUUUCACUUGCGCGUGAAAGAGAGAAGUGAACCAGAGAAACACACGUUGUGGUAUAUUACCUGGUA reads 0.592; that for GUCCUAUUUCACAUGCGCGUGAAAGAGAGAAGUGAACCAGAGAAACACACGUUGUGGUAUAUUACCUGGUA, 0.494.
Regarding GUCCUAUUUAACGUGCGCGUGAAAGAGAGAAGUGAACCAGAGAAACACACGUUGUGGUAUAUUACCUGGUA, the self-cleavage was 0.404.
The result for GUCCUGUUUCACGUGCGCGUGACAGAGAGAAGUGAACCAGAGAAACACACGUUGUGGUAUAUUACCUGGUA reads 0.122.
With GUCCUAUUUCACGUGCGCAUGAAAGAGAGAAGUGAACCAGAGAAACACACGUUGUGGUAUAUUACCUGGUA, the self-cleavage turned out to be 0.599.
Then GUCCUAUUUCACGUGCGCGUGAAAGAGAGAAGUGAACCAGAGAAAGACACGUUGUGGUAUAUUACCUGGUA, with 0.189; and GUCCUAUUUCACGUGCGCGUGAAAGAGAGAAGUGAACCAGAGAAACACACGUUGUGGUAUAUUGCCUGGUA, with 0.444.
Then GUCCUGUUUCACGUGCGCGUGAAAGAGAGAAGUGAACCAGGGAAACACACGUUGUGGUAUAUUACCUGGUA, with 0.47; and GUCCUAUUUCACGUGCGCGUGAAAGAGAGAAGUGAACCAGAGAAACACACGUUGUGGUAUAUUACCCGGUA, with 0.15; and GUCCUGUUUCACGUGCGCGUGAAAGAGAGAAGUGAACCAGAGAACCACACGUUGUGGUAUAUUACCUGGUA, with 0.163.
Then GUCCUGUUUCACGUGCGCGUGAAAGAGAGAAGUGAACCAGAGAAACACACGUUGUGGUAUAUUACCUGGUA, with 0.521; and GUCCUAUUUCACGUGCUCGUGAAAGAGAGAAGUGAACCAGAGAAACACACGUUGUGGUAUAUUACCUGGUA, with 0.553.
As to GUCCUAUUUCACGUGCGCGUGAAAGAGAGAAGUCAACCAGAGAAACACACGUUGUGGUAUAUUACCUGGUA, the self-cleavage was found to be 1.08.
Regarding GUCCUAUUUCACGUGCGCGUGAAAGAGAGAAGUGAACCAGAGAAACACACAUUGUGGUAUAUUACCUGGUA, the self-cleavage was 0.765.
The result for GUCCUGUUUCACGUGCGCGUGAAAGAGAGAAGUGAACCAGAGAAACACGCGUUGUGGUAUAUUACCUGGUA reads 0.286; that for GUCCUGUUUCACGUGCGCGUGAAAGAGAGAAGUGAACCAGAGAAACACUCGUUGUGGUAUAUUACCUGGUA, 0.107; that for GUCCUAUUUCACGUGCGCGUGAAAGAGAGAAGGGAACCAGAGAAACACACGUUGUGGUAUAUUACCUGGUA, 0.149.
In the case of GUCCUGUUUCGCGUGCGCGUGAAAGAGAGAAGUGAACCAGAGAAACACACGUUGUGGUAUAUUACCUGGUA, the self-cleavage is 0.456.
Consider GUCCUGUUUCACGUGCGCGUGAAAGAGAGAAGUGAACUAGAGAAACACACGUUGUGGUAUAUUACCUGGUA, for which the self-cleavage stood at 0.332.
Then GUCCUGUUUCACGUGCGCGUGAAAGAGAGAAGUGAACGAGAGAAACACACGUUGUGGUAUAUUACCUGGUA, with 0.0998.
Consider GUCCUAUUUCACGUGCGCGUGAAAGAGAGAAGUGAAUCAGAGAAACACACGUUGUGGUAUAUUACCUGGUA, for which the self-cleavage was 0.505.
The result for GUCCUAUUUCACGUGCGCGUGAAAGAGAGAAGUGAAACAGAGAAACACACGUUGUGGUAUAUUACCUGGUA reads 0.236; that for GUCCUGUUUCACGUGCGCGUGAAAGAGAGAAGUGAACCAGAGAAACACACGUUGUGGUAUCUUACCUGGUA, 0.0806; that for GUCCUGUUUCACGUGCGCGUGAAAGAGAGAAGUGAACCGGAGAAACACACGUUGUGGUAUAUUACCUGGUA, 0.197.
The result for GUCCUGUUUCACGUGCGCGUGAAAGAGAGAAGUGAACCAGAGAAACACACGUUGUGGUGUAUUACCUGGUA reads 0.121; that for GUCCUGUUUCACGUGCGCGUGAAAGAGAGAAGUGAACCAGAGAAACACACGUUGUGGUCUAUUACCUGGUA, 0.0783.
Then GUCCUAUUUCACGUGCGCGUGAAAGAGAGAAGUGAACCAGAGAAACACACGUGGUGGUAUAUUACCUGGUA, with 0.422; and GUCCUAUUUCAGGUGCGCGUGAAAGAGAGAAGUGAACCAGAGAAACACACGUUGUGGUAUAUUACCUGGUA, with 0.623; and GUCCUAUUUCACGUGCGCGUGAAAGAGAGAAGUGAACCAGAGAAACACACGUUGUGGUAUAUUACCUAGUA, with 0.176.
For GUCCUAUUUCACGUGCGCGUGAAAGAGAGAAGUGAACCAGAGAAACACACGUUGUGGUAUAUUACCUGUUA, the self-cleavage was 0.121.
The result for GUCCUAUUUCACGUGCGCGUGAAAGAGAGAAGUGAACCAGAGAAACACACGUUGUGGUAUAUUACCUGCUA reads 0.236; that for GUCCUAUUGCACGUGCGCGUGAAAGAGAGAAGUGAACCAGAGAAACACACGUUGUGGUAUAUUACCUGGUA, 0.419; that for GUCCUGUUUCACGUGCGCGUGAAAGAGAGAAGUGAACCAGAGAAACAUACGUUGUGGUAUAUUACCUGGUA, 0.0659.
GUCCUAUUUCACGUGCGCGUGAAAGAGAGAAGUGAACCAGAGAAACACACGUUGUGUUAUAUUACCUGGUA: the self-cleavage is 0.246.
Then GUCCUAUUUCACGUGCGCGUGAAAGAGAGAAGUGAACCAGAGAAACACACGUUGUGAUAUAUUACCUGGUA, with 0.107; and GUCCUAUUUCACGUGCGCGUGAAAGAGAGAAGUGAACCAGAGAAACACACGUUGUGCUAUAUUACCUGGUA, with 0.0868.
Then GUCCUAUGUCACGUGCGCGUGAAAGAGAGAAGUGAACCAGAGAAACACACGUUGUGGUAUAUUACCUGGUA, with 0.447; and GUCCUAUUUCACGUGCGCGUGAAAGAGAGAAGUGAACCAGAGAAACACACGCUGUGGUAUAUUACCUGGUA, with 0.619; and GUCCUAUUUCACGUGCGCGUGAAAGAGAGAAGUGAACCAGAGAAACACACGAUGUGGUAUAUUACCUGGUA, with 0.588.
The result for GUCCUGUUUCACGUGCGCGUGAAAGAGAGAAGUGAACCAGAGAAACACACGUUGUGGUAUAUUACCUGGUG reads 0.574; that for GUCCUAUUUCACGUGCGCGUGAAAGAGAGAAGUGAACCAGAGAAACACACGUUGUGGUAUGUUACCUGGUA, 0.137.
Consider GUCCUAUUUCACGUGCGCGUGAAAGAGAGAAGUGAACCAGAGAAACACACGUUGUGGUAUUUUACCUGGUA, for which the self-cleavage was 0.182.
Regarding GUCCUAUUUCACGUGCGCGUGAAAGAGAGAAGUGAACCAGAGAAACACACGUUGUGGUAUAUGACCUGGUA, the self-cleavage was 0.191.
Turning to GUCCUAUUUCACGUGCGCGUGAAAGAGAGAAGUGAACCAGACAAACACACGUUGUGGUAUAUUACCUGGUA, the self-cleavage is 0.239.
For GUCCUGUUUCACGUGCGCGUGAAAGAGAGAAGUGAACCAGAGAAACCCACGUUGUGGUAUAUUACCUGGUA, the self-cleavage turned out to be 0.235.
The result for GUCCUAUUUCACGUGCGCGUGAAAAAGAGAAGUGAACCAGAGAAACACACGUUGUGGUAUAUUACCUGGUA reads 0.546.
Consider GUCCUGUUUCACGUGCGCGUGAAAGAGAGAAGUGAUCCAGAGAAACACACGUUGUGGUAUAUUACCUGGUA, for which the self-cleavage turned out to be 0.215.

The values above are taken from the RNAGym collection of RNA variant scans (doi:10.7554/elife.80360).
